B1: Small glutamine-rich tetratricopeptide repeat-containing protein 2 (Saccharomyces cerevisiae), Q12118 (parent)
chain: MSASKEEIAALIVNYFSSIVEKKEISEDGADSLNVAMDCISEAFGFEREAVSGILGKSEFKGQHLADILNSASRVPESNKKDDAENVEINIPEDDAETKAKAEDLKMQGNKAMANKDYELAINKYTEAIKVLPTNAIYYANRAAAHSSLKEYDQAVKDAESAISIDPSYFRGYSRLGFAKYAQGKPEEALEAYKKVLDIEGDNATEAMKRDYESAKKKVEQSLNLEKTVPEQSRDADVDASQGASAGGLPDLGSLLGGGLGGLMNNPQLMQAAQKMMSNPGAMQNIQKMMQDPSIRQMAEGFASGGGTPNLSDLMNNPALRNMAGNLFGGAGAQSTDETPDNENKQ
partner: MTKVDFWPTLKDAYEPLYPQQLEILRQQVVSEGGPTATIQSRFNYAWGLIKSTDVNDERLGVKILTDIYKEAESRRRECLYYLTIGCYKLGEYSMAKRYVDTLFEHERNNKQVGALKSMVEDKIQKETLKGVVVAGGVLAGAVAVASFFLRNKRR
B2: Mitochondrial fission 1 protein (Saccharomyces cerevisiae), P40515 (parent)
chain: B1 partner
partner: B1 chain
B3: Small glutamine-rich tetratricopeptide repeat-containing protein 2 (Saccharomyces cerevisiae), Q12118 (parent)
chain: B1 chain

Variants of: B1
Details: with fis1_yeast FIS1, P40515

| effect of a mutation on the interaction | Variant |
| --- | --- |
| with no effect | R171A;R175A |

Variants of: B2
Details: with sgt2_yeast SGT2, Q12118

| effect of a mutation on the interaction | Variant |
| --- | --- |
| increasing interaction strength | G136L;G137L;G141L;A142L |

Variants of: B3
Details: with sec22_yeast SEC22, P22214
sec22_yeast SEC22, P22214, sequence (P22214 whole entry): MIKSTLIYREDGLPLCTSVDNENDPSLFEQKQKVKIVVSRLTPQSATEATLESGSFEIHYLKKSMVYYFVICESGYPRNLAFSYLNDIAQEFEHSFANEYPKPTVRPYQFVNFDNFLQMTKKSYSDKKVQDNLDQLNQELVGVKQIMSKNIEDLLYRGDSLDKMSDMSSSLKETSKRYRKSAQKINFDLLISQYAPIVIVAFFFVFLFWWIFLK

| effect of a mutation on the interaction | Variant |
| --- | --- |
| with no effect | R171A;R175A |
